Non-standard residues stand in square brackets, D forms with d. No end group written: not given here. Cit = NC(=O)NCCC[C@H](N)C(=O)O

OD data for one molecule are collected here from patent US20170298146A1 (MODIQUEST B V, published 2017).

The target of experiment [1] is T1, human recombinant histone H2A (human).
T1 construct: Non-deiminated
The experiment is described as follows: ELISA, 2 ug/well. Here is the method: (§1) CFC-1 and CFC-0 were coated at the same concentration and served as positive and negative controls, respectively, for specific anti-citrulline reactivity and as coating controls. Non-coated wells were used to test for aspecific binding of the antibodies. […] Detection of bound anti-citrulline antibodies was performed by incubating the wells with rabbit-anti-human-HRP (1:2000) for one hour at RT followed by incubation with TMB substrate. The resulting OD (y-axis) is a measure for antibody binding. H1=recombinant histone 1; H1/p2=huPAD2 recombinant histone 1; H1/p4=huPAD4 recombinant histone 1 and so forth (x-axis).
In general terms: An ELISA detects its analyte on a solid surface through an enzyme-linked reagent.

In experiment [2] the target is T2, huPAD4 deiminated human recombinant histone H2A (human).
T2 construct: also called H2A/p4; huPAD4 deiminated histone 2A
Put plainly: ELISA, 2 ug/well. How it is done:
as §1

Experiment [3] concerns the target T3, huPAD2 deiminated human recombinant histone H2B (human).
T3 construct: also called H2B/p2
The experiment is described as follows: ELISA, 2 ug/well. How it is done: as §1

Experiment [4] concerns the target T4, huPAD4 deiminated human recombinant histone H2B (human).
T4 construct: also called H2B/p4
Put plainly: ELISA, 2 ug/well. How it is done: as §1

Experiment [5] concerns the target T5, huPAD4 deiminated human recombinant histone H3 (human).
T5 construct: also called H3/p4
The experiment is described as follows: ELISA, 2 ug/well. How it is done:
as §1

Experiment [6] concerns the target human recombinant histone H4 (human, UniProt P62805 2-103). Put plainly: ELISA, 2 ug/well. How it is done: as §1
Experiment [7] has as its target T6, CFC-1.
T6 construct: Positive control for anti-citrulline reactivity; also called cfc1 XG
The experiment is described as follows: ELISA, 2 ug/well. How it is done:
as §1

Experiment [8] deals with T6, CFC-1. Put plainly: peptide ELISA, 10 ug/well. Here is the method: (§2) Biotin and citrulline-containing peptides derived from fibrinogen and vimentin were immobilized on NEUTRAVIDIN®-coated 96-well ELISA plates (0.3 μg/well). CFC-1 and CFC-0 were coated at the same concentration and served as positive and negative controls respectively for specific anti-citrulline reactivity and as coating controls. Non-coated wells were used to test for aspecific binding of the antibodies. […] Detection of bound anti-citrulline antibodies was performed by incubating the wells with rabbit-anti-human-HRP (1:2000) for one hour at RT followed by incubation with TMB substrate. The resulting OD (y-axis) is a measure for antibody binding.
(§3) Biotin-labeled and citrulline-containing fibrinogen and vimentin peptides (Table 5) were also tested for reactivity with the therapeutic antibodies. Peptides were coated on 96-well NEUTRAVIDIN®-ELISA plates.

In experiment [9] the target is T7, msFibα XH (mouse, X at position 15 is citrulline; biotin label).
T7 peptide: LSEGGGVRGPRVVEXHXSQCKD
The experiment is described as follows: peptide ELISA, 10 ug/well. How it is done:
as §2, §3

Experiment [10] addresses T8, msFibα XG (mouse, X at position 8 is citrulline; biotin label).
T8 peptide: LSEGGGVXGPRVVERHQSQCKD
The experiment is described as follows: peptide ELISA, 10 ug/well. Here is the method: as §2, §3

In experiment [11] the target is T9, huFibα XH (human, X at position 15 is citrulline; biotin label).
T9 peptide: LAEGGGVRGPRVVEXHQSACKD
The experiment is described as follows: peptide ELISA, 10 ug/well. How it is done: as §2, §3

Experiment [12] addresses T10, huFibα XG (human, X at position 8 is citrulline; biotin label).
T10 peptide: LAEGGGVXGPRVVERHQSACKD
Put plainly: peptide ELISA, 10 ug/well. Here is the method: as §2, §3

In experiment [13] the target is T11, msFibβ XG (mouse, also: biotin label).
T11 peptide: EPTDSLDA[Cit]GHRPVDRR
The experiment is described as follows: peptide ELISA, 10 ug/well. Here is the method: as §2, §3

Experiment [14] deals with T12, msVim XS/XL (mouse, also: biotin label).
T12 construct: also called mouse vimentin peptide
T12 peptide: YVT[Cit]SSAV[Cit]L[Cit]SSVP
The experiment is described as follows: peptide ELISA, 10 ug/well. Here is the method: as §2, §3

The target of experiment [15] is T6, CFC-1. The experiment is described as follows: peptide ELISA, 0.000128 ug/well. Here is the method:
as §2, with “histone 2A” for “fibrinogen and vimentin”
(§4) Ninety-six-well ELISA plates were coated with NEUTRAVIDIN® (0.1 μg/well) by overnight incubation at 4° C. Wells were washed five times with PBS-TWEEN®-20 (PBS-T) and blocked by a one-hour incubation with PBS-T+1% Bovine serum albumin (BSA) at room temperature (RT). After five more washes with PBS-T, wells were incubated for one hour at RT with histone-derived citrulline and biotin-containing peptides (0.3 μg/well). […] Wells were washed five times with PBS-T and incubated with rabbit-anti-human-HRP (1:2000) for one hour at RT followed by five washes with PBS-T and three wash steps with PBS. Wells were incubated for five minutes with TMB substrate before stopping the reaction with 2 M H₂SO₄. Optical density was measured by 450 nm and is a measure for the affinity of the antibodies used.

The target of experiment [16] is T13, Histone 2A citrulline-containing peptide 1 (human, also: biotin label).
T13 construct: also called AAASGXGKQGGK
T13 peptide: AAASG[Cit]GKQGGK
The experiment is described as follows: peptide ELISA, 0.000128 ug/well. How it is done: as §2, with “histone 2A” for “fibrinogen and vimentin”
as §4

For experiment [17], the target named is T14, Histone 2A citrulline-containing peptide 2 (human, also: biotin label).
T14 peptide: AKAKS[Cit]SSRAGL
Put plainly: peptide ELISA, 0.000128 ug/well. How it is done:
as §2, with “histone 2A” for “fibrinogen and vimentin”
as §4

Experiment [18] deals with T15, Histone 2A citrulline-containing peptide 3 (human, also: biotin label).
T15 peptide: KSRSS[Cit]AGLQFP
The experiment is described as follows: peptide ELISA, 0.000128 ug/well. Here is the method: as §2, with “histone 2A” for “fibrinogen and vimentin”
as §4

Experiment [19] deals with T16, Histone 2A citrulline-containing peptide 5 (human, also: biotin label).
T16 peptide: VGRVH[Cit]LLRKGN
Put plainly: peptide ELISA, 0.000128 ug/well. How it is done:
as §2, with “histone 2A” for “fibrinogen and vimentin”
as §4

The target in experiment [20] is T17, Histone 2A citrulline-containing peptide 6 (human, also: biotin label).
T17 peptide: VHRLL[Cit]KGNYSE
The experiment is described as follows: peptide ELISA, 0.000128 ug/well. Here is the method:
as §2, with “histone 2A” for “fibrinogen and vimentin”
as §4

Experiment [21] deals with T18, Histone 2A citrulline-containing peptide 8 (human, also: biotin label).
T18 peptide: AGNAA[Cit]DNKKTR
The experiment is described as follows: peptide ELISA, 0.000128 ug/well. How it is done: as §2, with “histone 2A” for “fibrinogen and vimentin”
as §4

Experiment [22] addresses T19, Histone 2A citrulline-containing peptide 9 (human, also: biotin label).
T19 peptide: DNKKT[Cit]IIPRHL
The experiment is described as follows: peptide ELISA, 0.000128 ug/well. Here is the method: as §2, with “histone 2A” for “fibrinogen and vimentin”
as §4

The target in experiment [23] is T20, Histone 2A citrulline-containing peptide 11 (human, also: biotin label).
T20 peptide: LQLAI[Cit]NDEELN
The experiment is described as follows: peptide ELISA, 0.000128 ug/well. How it is done:
as §2, with “histone 2A” for “fibrinogen and vimentin”
as §4

B1: RhmAb2.102 (antibody, human IgG1, lambda)
heavy: not shown
light: QSVLTQPPSMSAAPGQKVTISCSGSSSNIGNNYVSWYQQVPGTAPKLLIYDDNKRPSGIPGRFSGSKSATSATLGITGLQAGDEADYYCGSWDDNLSVVLFGGGTKLTVLGQPKAAPSVTLFPPSSEELQANKATLVCLISDFYPGAVTVAWKADSSPVKAGVETTTPSKQSNNKYAASSYLSLTPEQWKSHRSYSCQVTHEGSTVEKTVAPTECS
notes: Human IgG1 lambda; also called Rhm2.102
For the molecule B1, the OD in experiment [1] worked out at 0.115 OD; in experiment [2] it was 3.13 OD; in [3], 0.086 OD; in experiment [4] it was 0.069 OD; in [5], 0.439 OD; in experiment [6], 0.208 OD. Further, the OD in experiment [7] worked out at 3.38 OD; in experiment [8] it was 3.89 OD; in experiment [9], 0.154 OD; in [10] it was 3.03 OD; in experiment [11] it was 0.179 OD; in experiment [12], 2.73 OD. Besides, the OD came out at 3.8 OD in experiment [13]; 3.69 OD in experiment [14]; 0.749 OD in experiment [15]; 0.128 OD in experiment [16]; 0.075 OD in [17]; 0.063 OD in experiment [18]. Further, the OD in experiment [19] turned out to be 0.059 OD; in [20] it was 0.054 OD; in [21] it was 0.055 OD; in experiment [22] it was 0.055 OD; in experiment [23], 0.059 OD.
